Here are results for 42 variants from the RNAGym collection of RNA variant scans (doi:10.1073/pnas.2313332121).

The chains are these.
B1: TPR t1 (parent)
chain: GACCAAUCUGCCCUCAGAGCUCGAGAACAUCUUCGGAUGCAGAGGAGGCAGGCUUCGGUGGCGCGAUAGCGCCAACGUCCUCAACCUCCAAUGCAUCCCACCACAUGAUGAUGCCUGAAGAGCCUUGGUUUUUUG

In this data set the parent is B1. The data set is described as follows: polymerase ribozyme fitness, log enrichment relative to wild type (log ratio); higher = more active; in vitro selection for triplet polymerase activity. The gist of the method:
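Frozen incubation at −7 °C formed the core of a single, triplicate in vitro selection round applied to PCR-built, transcribed mutant libraries of each subunit of a heterodimeric triplet polymerase ribozyme. Extended constructs were gel-excised, captured with streptavidin beads and amplified by RT-PCR, and input and output libraries were Illumina-sequenced with a filter of ≥10 input reads and ≥1 read per output. Fitness is the logarithm of genotype enrichment relative to wild-type enrichment, with inverse-variance-weighted replicate averaging, and the logarithm is base 2.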
Take GACCAAUCUGCCCUCAGAGCUCGAGACCAUCUUCGGAUGCAGAGGAUGCAGGCUUCGGUGGCGCGAUAGCGCCAACGUCCUCAACCUCCAAUGCAUCCCACCACAAGAUGAUGCCUGAAGAGCAUUGGUAUUAUG: the “polymerase ribozyme fitness (log ratio)” value is -3.86. Turning to GACCAAUCUGCCCUCAGAGCUCGAGAACAUCUUCGGAUGCAGAGGAGGCAGGCUUCGGUCGCGCGAUAGAGCCAACGACCUCAAGCUCCAAUGCAUCUCACCACAUGAUGAUGCCUCAAGAGCCUUGGUUUUUUG, the “polymerase ribozyme fitness (log ratio)” value is -6.56. For GACCAAUCUGCCCCCAGAGCUCGAGAACAUCUUCGGAUGCAGAGGAGGCAGGCUUCGGUGGCGCGAUAGCGCCAACGUCCUCAACCUCCAAUGCAUCCCACCACAUGAUAAUGCCUGAAGAGCCUUGGUUUUUUG the value was -2.2; for GACCAAUCUGCCCUCAGAGCUCGAGAACUUGUUCGGAUGCAGAGGAGGCAGGCUUCGGUGGCGCGAUAGCGCCAACGUCCUCAACCUCCAAUGCAUGCCACCACAUGAUGAAGCCUGAAGAGCCUUGGGUUUUUG, -6.42; for GACCAAUCUGCCCUCAGAGCUCGGGAACAUCUUCGGAUGCAGAGGAGGCAGGCUUCGGUGGUGCGAUAGCGCCAACGUCCACAACCUCCAAUGCAUCCCACCACAUGAUGAUGCCUGAAGAGCCUUGGUUUUUUG, -3.04. Consider GACCAAUCUGCCCUCAGAGCUCGAGUACAUCUUCGGAUGCAUAGGAGGCAGGCUUCAGUGGCGCGAUAGCGCCAACGGCCUCAACCUCCAAUGCAUCCCACCACAAGAUGAUGCCUGAAGAGCCUUGGUUUUUUG, for which the “polymerase ribozyme fitness (log ratio)” value is -5.03. For GACCAAUCUUCCCUCAGAGCUCGAGAACAUCUUCGGAUGCAGAGGAGGCAGGCUUCGGUGGCGCGAUAGCGCCAUCGUCCUCAACCUCCAAUGCAUCCCACCACAUGAUGAUGCCUGAAGAGCCUUGGUUUUUUG the value was -0.536; for GACCAAUCUGCCCUCAGAGCUCGAGAACAUCUUCGGAUGCAGAGGAGGCAGGCUUCGGUGGCGCGAUAGCCCCAACGUCCUCAACCUCCAAUGCAUCCCACCACAUGAUGAUACCUGAAGGGCCUUGGUUUUAUG, -1.06; for GACCAAUCUGCCGUCAGAGCUCGAGAACAUCUUCGGAUGCAGAGGAGGCAGGCUUCGGUGGCGCGAUAGCGGCAACGUCCUCAACCUCCAAUGCAUCCCACCACAUGAUGAUGCCUGAAGAGCCUUGGUUUUUUG, -0.869. The same measure for GACCAAUCUGCCCUCAGAGCUCGAGAACAUCUUCGGAUGCAGAGGAGGCAGGCUUCGGUGGCGCGAUAGCGGCAACGUCCUCAACCUCCAAUGCAUCCCACCACAUGAUGGUGCCUGAAGAGCCUUGGUUUUUUG: 0.355; for GACCAAUGUGCCCUCAGAGCUCGAGAACAUCUUCGGAUGCAGAGGAGGCAGGCUUCGGUGGCGCGAUAGCGCCAACGUCCUCAACCUCCAAUGCAUCCCACCACAUGAUGAUGCGUGAAGAGCCUUGGUUUUUUG: 1.06; for GACCAAUCUGCCCUCAGAGCUCGAGAACAUCUUCGGAUGCAGAGGAGGCAGGCUUCGGUGGCGCGAUAGCGACAACGUCCUCAACCUCCAAAGCAUCCCACCACAUGAUGAUGCCUGAAGUGCCGUGGUUUUUUG: -1.7. Consider GACCAAUCUGCCCUCAGAGCUCGAGAACAUCUUCGGAUGCAGAGGAGGCAGACUUCGGUGGCGCGAUAGCGCCAACGUCCUCAACCUCCAAUGCAUCCCACCAUAUGAUCAUGCCUGAAGAGCCUUGGUUUUUUG, for which the “polymerase ribozyme fitness (log ratio)” value is -2.99.

Consider GACCAAUCAGCCCUCAGAGCUCGAGAACAUCUUCGGAUGCAGAGGAGGCAGGCUUCGGUGGCGCGAUAGUGCCGACGUCCUCAACCUCCAAUGCAUCCCACCAAAUGAUGAUGCCUGAAGAGACUUGGUUUUUUG, for which the “polymerase ribozyme fitness (log ratio)” value was -3.22.

As for GACUAAUCUGCCCUCAGAGUUCGAGAACAUCUUCGGAUGCAGAGGAGGCAGGCUUCGGGGGCGCGAUAGCGCCAACGUCCUCAACCUCGAAUGCAUCCCACCACAUGAUGAAGCCUGAAGAGCCAUGGUUCUUUG, the “polymerase ribozyme fitness (log ratio)” value is -2.82. For GACCAAUCUGCCCUCAGAGCUCGAGAACAUCUUCGGAUGCAGAGGAGGCAGGCUUCGGUGGCGCGAUAGCGCCAACGUCCUCAACCUCCAAUGCAUCCCACCACAUGAUGAUGCCUGGAGAGCCUUGGUUUUUUC the value was -0.273; for GACCAAUCUGCCCUCAGAGCUCGAGAACAUCUUCGGAUGCAGAGGAGGCAGCCUUCGGUGGCGCGAUAGCGCCAACGUCCUCAACCUACAAUGCAUCCCACCACAUGAUGAUGCCUGAAGAGCCUUGGUUUUUUG, -0.833; for GACCAAUCUGCCCUCAGAGCUCGAGAACAUCUUCGGAUGCAGAGGAGGCAGGCUCUGGCGGCGCGAUAGCGCCAACGUCCUCAACCUCCAAUGCAUCCCACCACAUGAUGAUGCCUGAAGAGCCUUGGUUUUUUG, -0.103. The same measure for GACCAAUCGGCCCUCAGAGCUCGAGAACAUCUUCGGAUGCAGAGGAGGCAGGCUUCGGUGGCGCGAUAGAGCCAACGUCCUCAACAUCCAAUGCAUCCCACCACAUGAUGAUGCCUGAAGAGUCUUGGUUUUUUG: -0.996.

Consider GACCAAUCUGCCCUCAGAGCUCGAGAACAUCUUCGGAUGCAGAGGAGGCAGGCUUCGGUGGCGCGAUAGCGCCAACGUCCUCAAUCUCCAAUGCAUCCCACCACAUGAUGUUGCCUGAAGAUCCUUGGUUUUUUG, for which the “polymerase ribozyme fitness (log ratio)” value is -4.09. For GACCAAUGUGCCCUCAGAGCUCGAGAACAUCUUCCGAUGCAGAGGAGGCAGGCUUCGGUGGCGCGAUAGCGCCAACGUCCUCAACCUCCGAUGCAUCCCACCACAUGAUGAUGCCUGAAGAGCCUUGGUUUUUUG the value was -2.66; for GACCAAUCUGCCCUCAGAGCUCGAGAACAUCUUCGGAUGCAGAGGAGGCAGGCUUCGGUGGCGCGAUAGCGCCAACGUCCUCAAUCUCGAAUGCAUCCCACCACAUGAUGAUGCCUGAAGAGCCUUGGUUUUUUG, -1.76. The same measure for GACCAAUCUCCCCUCAGUGCUCGAGAACAUCUUCGGAUGCAGAGGAGGCAGGCUUCGGUGGCGCGAUAGCGCGAACGUCCUCAACCUCCAAUGCAUCCCACCACAUGAUGAUCCCUGAAGAGCCUUGGUUUUUUG: -5.21; for GACCAAUCUGCCCUCAGAGCUCGAGAACAUCUUCGGAUGCAGAGGAGGCAGGGUUCGGUGGCGCGAUAGCGCCGACGUCCUCAACCUCCAAUGCAUCCCACCACAUGAUGAUGCCUGAAGAGCCUUGGUUUUUUG: -1.52; for GACCAAUCUGCGCCCAGAGCUCGAGAACAUCUUCGGAUGCAGAGGAGGCAGGCUUCGGUGGCGCGAUAGCGCCAACGUCCUCAAUUUCCAAUGCAUCCCACCACAUGAUGAUGCCUGAAGAGCCUUGGUUUUUUG: -1.22. For GACCAAUCUGCAUUCAGAGCUCGAGAACAUCUUCGGAUGCAGAGGAGGCAGGCUUCGGUGGCGCGAUAGCACCAACGUCCUCAACCUCCAAUACAUCCCACCACAUGAUGAUGCCUGAAGAGCCUUGGUUUUUUG the value was -0.733; for GACCAAUCUGCCCUCAGAGCUCGAGAACAUCUUCGGAUGCACAGGAGGCAGGCUUCGGUGGCGCGAUAGCGCCAACGUCCUCAACCUCCAAUGCAUCCCACCACAUGAUGAUGCCUGGAGAGCCUUGGUUUUUUG, -1.93; for GACCAAGUUGCCCUUAAAGCUCGAGAACAUCUUCGGAUGCAGAGGAGGCGGGCUUCGGUGGCGCGAUAGCGCCAACGUCCUCAACCUCCAAUGCAUCCCACCACAUGAUGAUGCCUGAAGAGCCUUGGUUUUUUG, -3.01. Take GACCAAUCUGCCCUCAGAGCUCGAGAACAUCUUCGGAUGCAGAGGUGGCAGGCUUCGGUGGCGCGAUAGCGCGAACGUCCUCAACCUCCAAUGCAUCCCACCACAUGAUGAUGCCUGAAGAGCCUUGGUUUUGUG: the “polymerase ribozyme fitness (log ratio)” value was -1.42. In the case of GACCAAUCUGCCCUCAGAGCUCGAGAACAUCUUCGGAUGCAGAGGAGGCAGGGUUCGGUGGCCCGAUAGCGCCAACGUCCUCAACCUCCAAUCCAUCCCACCACAUGAUGAUGCCUGAAGAGCCUUGGUUUUUUG, the “polymerase ribozyme fitness (log ratio)” value is -0.994. For the variant GACCAAUCUGCCCUCAGAGCGCGAGAACAUCUUCGGAUGCAGAGGAGGCAGGCUUCGGUGGCGCGAUAGCGCAAACGUCCUCAACCUCCAAUGAAUCCCACCACAUGAUGAUGCCUGAAGAGCCUUGGUUUUUUG, the “polymerase ribozyme fitness (log ratio)” value is -2.37. The same measure for GACCAAUCUUCCCUCAGAGCUCGAGAACUUCUUCGGAUGCAGAGGAGGCAGGCUUCGGUGGCGCGAUAGCGCCAACGUCCUCAACAUCCAAUGCAUCCCACCACAUGAUGACGCCUGAAGAGCCUUGGUUUUUUG: -1.11; for GACCAAUCUGCCCUCAGAGCUCGAGAACAUCUUCGGAUGCAGAGGAGGCAGGCUCCGGUGGCGCGAUAGCGCCAACGUCCUCAACCUCCAAUGCAUCCCACCACAUGAUGUUGCCUGAAGAGCCUUGGUUUUUUG: -4.15. The same measure for GACCAAUUUACCCUCAGAGCUCGAGAACAUCUUCGGAUGCAGAGGAGGCAGGCUUCGGUGGCGCGAUAGCGCCAACGUCCUCAACCUCCAAUGCAUCCCACCACAUGAUGAUGCCUGAAGAGCAUUGGUUUUUUG: 2.42. The same measure for GACCAAUCUGCCCUCAGAGCUCGAGAACAUCUUCGGAUGCAGAAGAGGCAGGCUUCGGUGGCGCGAUAGCGCCAACGUCAUCAACCUCCAAUGCAUCCCACCACAUGAUGAUGCCUGAAGAGCAUUGGUUUUUUG: -3.54. Take GACCAAUCUGCCCUCAGAGCUCGAGAACAUCCUCGGAUGCAGAGGAUUCAGGCUUCGGUGGCGCGAUAGCGCCAACGUCCUCAACCUCCAAUGCAUCCCACCACAUGAUGAUCCCUGAAGAGCCUUGGUUUUUUG: the “polymerase ribozyme fitness (log ratio)” value was -3.38.

For the variant GACCAAUCUGCCCUCAGAGCUGGAGACCAUCUUCGGAUGCAGAGGAGGCAGGCUUCGGUGGCGCGAUAGCGCCAACGUCCUCAACCUCCAAUGCAUCCCACCACAUGAUGAUGCCUGAAGAGCCUUGGUUUUUUG, the “polymerase ribozyme fitness (log ratio)” value was -4.37. Consider GACCAAUCUGCCCUCAGAGCUCGAGAACAUCUUCGGAUGCAGAGGAGGCAGGCUUUGGUGGCGCGAUAGCGCCAACGUCCUCAACCUCCAAUGCAUCCCACCACAGGAUGAUGCCCGAAGAGCCUUGGUUUUUUG, for which the “polymerase ribozyme fitness (log ratio)” value is -3.48. Regarding GACCAAUCUGCCCUCAGAGCUCGAGAACAUCUUCGGAUGCAUAGGAGGCAGGCUUCGGUGGCGCGAUAGCGCAAACGUCCUCAACCUCCAAUGCAUCCCACCACAUGAUGAUGGCUGAAGAGCCUUGGUUUUUUG, the “polymerase ribozyme fitness (log ratio)” value is -1.95. For GACCAAUCUGCCCUCAGAGCUCGAGAACAUCUUCGGAUGCAGAGGAGGCAGGCUUCGGUGACGCGAUAGCGCCCACGUCCUCAACCUCCAAUGCAUCCCACCACAUGAUGAAGCCUGAAGAGCCUUGGUUUUUUG the value was -2.06. For GACCAUUCUGCACUCAGAGCUCGAGAACAUCUUCGGAUGCAGAGGAGGCAGGCUUCGGUGGCGCGAUAGCGCCAACGUCCUCAACCUCCAAUGCAUCCCACCACAUGAUGAUGCCUGAAGAGCAUUGGUUUUUUG the value was 0.761; for GACCAAUCUGCACUCAGAGCUCGAGAACAUCUUCGGAUGCAGAGGAGGCAAGCUUCGGUGGUGCGAUAGCGCCAACGUCCUCAACCUCCAAUGCAACCCACCACAUGAUGAUGCCUGAAGAGCCUUGGUUUUUUG, -5.39.
